{
  "source": "paper PMC4585913",
  "about": "“Crystal structure of Streptococcus pneumoniae pneumolysin provides key insights into early steps of pore formation” (Scientific Reports, 2015)",
  "biological_target": "PLY R208A (Streptococcus pneumoniae) (UniProt P0C2J9)",
  "data": [
    {"substance": "PLY R208A (from UniProt P0C2J9 2-470) (natural protein)", "values": [
      {"measurement": "cytolytic activity on human red blood cells, percent of native PLY activity (% native PLY activity)", "value": 2.5}
    ]}
  ]
}
